In this assay the target is T1, HA-Halo-MRAP2 (human), Q96G30.
T1 chain: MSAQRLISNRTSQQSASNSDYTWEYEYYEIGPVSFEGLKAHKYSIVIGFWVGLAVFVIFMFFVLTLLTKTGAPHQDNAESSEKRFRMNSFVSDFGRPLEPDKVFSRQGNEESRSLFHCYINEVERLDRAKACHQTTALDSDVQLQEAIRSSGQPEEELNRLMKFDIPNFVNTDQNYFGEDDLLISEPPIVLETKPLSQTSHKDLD
As to the kind of experiment: single-molecule pull-down (SiMPull); one-colour SiMPull with photobleaching step analysis: HA-Halo-tagged protein labelled on HEK293 cells with membrane-impermeable CA-Sulfo646, lysed in 0.5% LMNG/0.05% CHS, immobilised by biotinylated anti-HA antibody on a PEG-passivated slide, TIRF imaging. The note with it: remark: other sources report otherwise.

Where only a bound is given, the exact number is not on record here.

B1: HA-Halo-MRAP2, Q96G30 1-205 (natural protein)
chain: T1 chain
modifications: here or on the partner: CA-Sulfo646 dye on the Halo tag; CA-Sulfo646 dye on the Halo tag
B1 displayed a percent of molecules with one bleaching step of 68%, a percent of molecules with three or four bleaching steps below 5% and a percent of molecules with two bleaching steps of 28%.

Values taken from doi:10.1101/2024.11.06.622243.
